Data on 13 molecules can be found in patent publication US20260062442A1, “COMPOSITIONS AND METHODS FOR PURIFYING ANTIGEN-BINDING ANTIBODY FRAGMENTS USING PEPTIDE LIGANDS” (North Carolina State University, priority 2022, published 2026).

Test [1] addresses engineered monoclonal Fab-κ (0.171 mg/mL in clarified CHO-K1 cell culture harvest). Description: capture from CHO-K1 CCCF with engineered Fab 0.171 mg/mL, elution pH 2.5; yield by anti-human Fab ELISA.
Test [2] deals with human polyclonal Fab. Kind of test: Dynamic binding of human polyclonal Fab on peptide-Toyopearl resins (chromatograms). Conditions: residence time 2 min; for binding of human polyclonal Fab (chromatogram): human polyclonal Fab at 2 mg/mL in PBS; for amount of human Fab that flowed through: human Fab at 2 mg/mL in PBS. How it is done: (§1) Dynamic binding of human Fab-κ and Fab-λ in non-competitive condition. The peptides listed in Table 3 were synthesized on Toyopearl resins as described herein, and the resulting adsorbents were packed into 0.1 mL (30×2.1 mm) columns, installed on a Waters Alliance 2695 HPLC system (Milford, MA), and equilibrated with PBS at pH 7.4. […] The subsequent chromatographic steps of washing with PBS, elution with 0.2 M acetate buffer pH 4, regeneration with 0.1 M glycine buffer pH 2.5, and equilibration with PBS were all performed at 348 cm/h. The dynamic binding protocol was repeated with 50 μL of human Fab-κ and Fab-λ, both at 1 mg/mL in PBS. The column effluent was continuously monitored at 280 nm by UV spectrophotometry. The yield was determined by peak area analysis and determined by taking the area of the elution peak divided by the flow-through, elution, and regeneration peak areas. Finally, the dynamic binding capacity at 10% flowthrough of […]-Toyopearl resin was measured via continuous loading of a solution of human polyclonal Fab at either 1, 2, or 5 mg/mL in PBS at the linear velocity of either 173, 87, or 35 cm/h, corresponding to the residence times (RT) of 1, 2, and 5 min, until reaching saturation of the adsorbent. The dynamic binding capacity of Protein L-agarose resin was measured via continuous loading of human polyclonal Fab at 1 mg/mL in PBS at the linear velocity of either 173 or 87 cm/h, corresponding to RT of 1 and 2 min, until reaching saturation of the adsorbent.
Secondary selection of Fab-binding peptide ligands via dynamic binding studies. The candidate ligands selected from library screening were conjugated to Toyopearl AF-Amino-650M resin and evaluated via Fab binding studies in dynamic mode. Toyopearl resin was selected for chromatographic evaluation owing to its low non-specific protein adsorption, low compressibility, and strong chemical stability. The residence time of 2 minutes (RT: 2 min) was adopted to mimic the loading conditions utilized in industrial bioprocessing. A solution of human polyclonal Fab at 2 mg/mL in PBS was adopted as feedstock to discern ligands that either bind all Fab or target selectively Fab-κ or Fab-λ; accordingly, the top ligands by elution peak area were subjected to further analysis with either pure k or λ subtypes. Finally, in line with library screening, A 0.2 M acetate buffer was utilized at pH 4 for Fab elution; this value of pH is sufficient to ensure high yield without compromising the integrity and bioactivity of the product. This represents a distinct advantage of peptide ligands with moderate affinity compared to high-affinity protein ligands; for comparison, Protein L as well as KappaSelect and LambdaFabSelect resins require elution at pH 2.5-3.

The subject of test [3] is monoclonal Fab-κ. The note with it: cited from earlier work.
In test [4] the target is human Fab-κ (human). Kind of test: equilibrium adsorption isotherm on resin, Langmuir fit.
The test system of test [5] is human Fab-κ. Kind of test: Dynamic binding of human Fab-κ in non-competitive condition on peptide-Toyopearl resins. Conditions: κ and λ Fabs, 1 mg/mL in PBS, residence time 2 min. How it is done:
as §1, with “The dynamic binding capacity of Protein L-agarose resin was measured via continuous loading of human polyclonal Fab at 1 mg/mL in PBS at the linear velocity of either 173 or 87 cm/h, corresponding to RT of 1 and 2 min, until reaching saturation of the adsorbent.” left out

Test [6] relates to human polyclonal Fab. Description: Dynamic binding capacity at 10% breakthrough with human polyclonal Fab in PBS. Conditions: RT of 2 min, range. How it is done: as §1, with “The dynamic binding capacity of Protein L-agarose resin was measured via continuous loading of human polyclonal Fab at 1 mg/mL in PBS at the linear velocity of either 173 or 87 cm/h, corresponding to RT of 1 and 2 min, until reaching saturation of the adsorbent.” left out

Test [7] relates to scFv13R4. Description: Purification of scFv from P. pastoris perfusate. Conditions: scFv eluted at 0.1 M glycine pH 2.5, not at pH 4. The protocol:
Preparation of spiked feedstock. A wild-type X33 P. pastoris strain was obtained from ThermoFisher Scientific as an agar stab. This stab was used to create freezer stocks, which were stored at −80° C. A vial from the freezer stock was thawed, plated on a yeast extract peptone dextrose (YPD) agar plate, and incubated at 30° C. A single colony was then used to inoculate a 1 L vented shake flask containing 100 mL of Buffered Glycerol-complex Medium (BMGY), and the flask was incubated at 250 rpm at 30° C. A 300 mL bioreactor connected to a perfusion device was prepared and inoculated with cells harvested from the shake flask. After an initial growth phase, the perfusion system was activated, and fluid was continuously extracted from the bioreactor at a rate of 1.5 vessel volumes per day (VVD) while retaining the cells. Simultaneously to activating the perfusion system, a 2% v/v methanol feedstock containing IgG at 0.5 mg/mL began to be fed continuously into the bioreactor at 1.5 VVD. […]
Purification of scFv from P. pastoris perfusate. […] Washing, elution, and regeneration steps were all performed at 0.5 mL/min (231 cm/h), while the effluent was continuously monitored by UV spectrophotometry at 280 nm. […] The collected fractions were analyzed via non-reducing SDS-PAGE analysis after concentration and diafiltration to PBS at pH 7.4 by a 10 kDa MWCO spin concentrator.

Test [8] addresses human polyclonal Fab (human). Description: dynamic binding on peptide-Toyopearl column, human Fab 2 mg/mL in PBS, residence time 2 min.
For test [9], the target named is Certolizumab pegol. Kind of test: capture from CHO-S CCCF spiked with Certolizumab 1 mg/mL, elution pH 4.
Test [10] has as its target human polyclonal Fab (human). Description: equilibrium adsorption isotherm on resin, Langmuir fit.
The target in test [11] is human polyclonal Fab (human). Kind of test: dynamic binding capacity at 10% breakthrough, Fab 1 mg/mL in PBS, residence time 1 min.
Test [12] deals with human polyclonal IgG (human). Kind of test: dynamic binding capacity at 10% breakthrough, P. pastoris perfusate with IgG 0.5 mg/mL, residence time 2 min.
For test [13], the target named is human Fab-κ (human). Description: dynamic binding on peptide-Toyopearl column, Fab 1 mg/mL in PBS, residence time 2 min, elution pH 4; yield = elution peak area over total peak area.
Test [14] concerns the target human Fab-λ (human). The description is as above.
The target in test [15] is engineered monoclonal Fab-κ (0.171 mg/mL in clarified CHO-K1 cell culture harvest). Description: capture from CHO-K1 CCCF with engineered Fab 0.171 mg/mL, elution pH 4; yield by anti-human Fab ELISA.
Test [16] addresses human polyclonal Fab (human). Kind of test: capture from null CHO-S CCCF spiked with human Fab 1 mg/mL, elution pH 4; yield by anti-human Fab ELISA.
Test [17] concerns the target human polyclonal Fab (human). Description: dynamic binding capacity at 10% breakthrough, Fab 5 mg/mL in PBS, residence time 1 min.
In test [18] the target is human polyclonal Fab (human). Description: dynamic binding capacity at 10% breakthrough, Fab 1 mg/mL in PBS, residence time 2 min.
The target in test [19] is human polyclonal Fab (human). Description: dynamic binding capacity at 10% breakthrough, Fab 5 mg/mL in PBS, residence time 2 min.
Test [20] addresses human Fab-κ (human). Kind of test: dynamic binding on peptide-Toyopearl column, Fab 1 mg/mL in PBS, residence time 2 min.
The target of test [21] is human Fab-λ (human). Described as above.
Test [22] concerns the target human polyclonal Fab (human). Kind of test: dynamic binding capacity at 10% breakthrough, Fab 1 mg/mL in PBS, residence time 5 min.
Test [23] has as its target Certolizumab pegol. Description: capture from null CHO-S CCCF spiked with Certolizumab 1 mg/mL, elution pH 4; yield by anti-human Fab ELISA.
The target of test [24] is human polyclonal IgG (human). Description: capture of IgG 0.5 mg/mL from P. pastoris perfusate, elution pH 4; yield by Protein G HPLC.
Test [25] concerns the target human polyclonal Fab (human). Kind of test: dynamic binding capacity at 10% breakthrough, Fab 2 mg/mL in PBS, residence time 2 min.

Ends that are not written are not given here.

In turn, Protein L-agarose resin registered a Yield in test [1] of 91%.
On to “WIPNSEFEHERTK [B1, peptide ligand for monoclonal Fab-κ identified by Nascimento et al]”, for which the “binding of human polyclonal Fab (chromatogram)” value in [2] is recorded as “failed to bind”. Besides, the “affinity for two other monoclonal Fabs” value in [3] was “little-to-no affinity”.
In general, Kd refers to a measure of binding affinity in units of concentration. A higher Kd goes with a looser complex. Regarding Protein L-Sepharose resin, in test [4], the Kd was determined as 30.9 nM and the Qmax (mg per mL of resin) was determined as 20.7.
As for “WHYNWQDVSDRQ [A5, variant peptide ligand developed by Nascimento et al]”, in test [2], the “amount of human Fab that flowed through” value was 61%.
Same read-out and setting: next, “HQNHHSTFRWEIY [C7, variant peptide ligand developed by Nascimento et al]”: 79%.
With IIHRRAFWWFPN, the “fraction of the loaded Fab bound” value in [5] is recorded as “approximately half”.
For the molecule FRWNFHRNTFFP, in test [2], the “binding of human polyclonal Fab (chromatogram)” value is given as “very low flow-through peak area”. In addition, the DBC10% in [6] lay within 6 to 16 mg/mL. Also, in test [7], the “relative affinity for scFv vs Fab” value is recorded as “higher affinity for scFv than Fab”. The “fraction of the loaded Fab bound” value in [5] was “approximately 90%”.
HQNHHSTFRWEIY (also: attached to Toyopearl resin, site not given here) yielded a percent of human Fab that flowed through (unbound) in test [8] of 79%.
With FRWNFHRNTFFP (also: C-terminus attached to Toyopearl AF-Amino-650M resin or ChemMatrix bead), the Yield is 96.5% in test [9]; 93.3% in test [15]; 94.1% in [16]; 96% in test [23]; 33% in [24]. For the same molecule, the dissociation constant (Kd) was 2160 nM in [10] and 2050 nM in test [4]. Moreover, the Qmax (mg per mL of resin) in test [10] was 20.4; in test [4], 19. Also, the DBC10% (mg Fab per mL of resin) in [11] was determined as 4.5; in [17], 15.5; in [18], 6; in [19], 16.5; in [22], 7; in test [25] it was 10.9. The DBC10% (mg IgG per mL of resin) in [12] stood at 13.4. Also, in test [12], the DBC10% (mg IgG per mL resin) amounted to 13.4. This molecule returned a Fab-κ Yield in test [13] of 89%. The molecule further returned a Fab-λ Yield in test [14] of 91%. In addition, the percent of the load bound in [20] and in test [21] was 90% in each case.
Consider RWTIWPPNWHPP (also: C-terminus attached to Toyopearl AF-Amino-650M resin or ChemMatrix bead), for which, in test [13], the Fab-κ Yield came to 40%. In addition, the Fab-λ Yield in [14] worked out at 53%.
As to IIHRRAFWWFPN (also: C-terminus attached to Toyopearl AF-Amino-650M resin or ChemMatrix bead), in [10], the Kd is 5140 nM and the Qmax (mg per mL of resin) worked out at 13.5. In test [4], the Kd was determined as 5820 nM and the Qmax (mg per mL of resin) stood at 11.9. In test [13], this molecule returned a Fab-κ Yield of 55%. This molecule showed a Fab-λ Yield in test [14] of 66%.
Consider IRHHNIWFNTIA (also: C-terminus attached to Toyopearl AF-Amino-650M resin or ChemMatrix bead), for which the Fab-κ Yield in test [13] was found to be 42%. The Fab-λ Yield in test [14] stood at 42%.
For WHYNWQDVSDRQ (also: attached to Toyopearl resin, site not given here), the percent of human Fab that flowed through (unbound) in test [8] was 61%.
